{
  "source": "FireProtDB (doi:10.1021/bi00009a043)",
  "details": "Danio rerio; pH 8; Thermal; DSC; Tris 20 mM; KCl 0.6 M; transition: 3; reversible: no",
  "note": "“And” between values parts separate entries of the source, which are not always exact repeats. Equal entries are not always repeated.",
  "data": [
    {"substance": "Tropomyosin alpha-1 chain wild type, P13104", "values": [
      {"measurement": "unfolding enthalpy (van 't Hoff)", "value": "118 kcal/mol and 124 kcal/mol and 151 kcal/mol"}
    ]}
  ]
}
